For assay [1], the target named is T1, MERS-CoV spike protein, full length on virus or transfected cells (MERS-CoV, UniProt K9N5Q8 18-1353). As to the kind of experiment: cell-based or functional assay.
For assay [2], the target named is T2, SARS-CoV spike protein, full length on virus (SARS-CoV, UniProt P59594 14-1255). As to the kind of experiment: cell-based or functional assay.
Assay [3] has as its target SARS-CoV-2 S protein, membrane form (SARS-CoV-2, UniProt P0DTC2 14-1273). As to the kind of experiment: cell-based or functional assay.
The target of assay [4] is T3, SARS-CoV-2 spike trimer (COVID19 S ectodomain, residues 1-1208) (SARS-CoV-2, UniProt P0DTC2 14-1208). As to the kind of experiment: ELISA on spike trimer, IgG titrated.
In assay [5] the target is T3, SARS-CoV-2 spike trimer (COVID19 S …).
The target in assay [6] is T4, SARS-CoV spike trimer (S ectodomain protein) (SARS-CoV, UniProt P59594 14-1195).
Assay [7] has as its target T5, MERS-CoV spike trimer (S ectodomain protein) (MERS-CoV, UniProt K9N5Q8 18-1296).
Assay [8] has as its target T1, MERS-CoV spike protein, full length on …. As to the kind of experiment: cell-based or functional assay. This is another data set of the same source.
The target of assay [9] is T2, SARS-CoV spike protein, full length on …. As to the kind of experiment: cell-based or functional assay. The source holds these as a separate data set.
In assay [10] the target is T3, SARS-CoV-2 spike trimer (COVID19 S …). The source holds these as a separate data set.
Assay [11] shares this target. The source holds these as a separate data set.
In assay [12] the target is T4, SARS-CoV spike trimer (S ectodomain …). The source holds these as a separate data set.
For assay [13] the target is unchanged. As to the kind of experiment: SARS-CoV spike.
Assay [14] addresses T5, MERS-CoV spike trimer (S ectodomain …). As to the kind of experiment: MERS-CoV spike.

Like-named read-outs stand apart in the source and are kept apart here.

B1: IC008 (antibody, V domains shown)
VH: LVQLQESGPRLVTPSETLSLTCTVSGGSISSSRHYWGWIRQPPGMGLEWIGSIDYSGGTYCNPSLKSRVTISEDTSKNQFSLKVNSVTAADTAVYYCARQVGHSGRGHNWFDPWGQGTLVTVSS
VL: DIQMTQSPSSLSASVGDRVTITCRASQSIYNYLNWYQQKPGKAPKFLIYAASTLQTGVPSRFSGSGSGTDFTLTISSLQPEDFATYYCQQSYSSSVTFGQGTRLEIK
notes: also called CoV-bnMAB; mAb IC008
With B1, the “IC50, neutralisation” value is 2.9 µg/mL in assay [1], 3 µg/mL in assay [2] and 4.5 µg/mL in [3]. Besides, in assay [4], the “EC50 (read off the curve)” value was about 2 nM.

B2: IC001 (antibody, V domains shown)
VH: QVQLVQSGAEVKKPGASVKVSCKASGYTFTSYAMHWVRQAPGQRLEWMGWINAGNGNTKYSQKFQGRVTITRDTSASTAYMELSSLRSEDTAVYYCARDRHMVVPAAVFDYWGQGTLVTVSS
VL: AIQLTQSPSTLSASVGDRVTITCRASQSISSWLAWYQQKPGKAPKLLIYKASSLESGVPSRFSGSGSGTEFTLTISSLQPDDFATYYCQQYGTFGQGTKWISN
notes: also called CoV-bnMAB; mAb IC001
B2: the Kd was 700 nM in assay [5], 700 nM in assay [6] and 1200 nM in assay [7]. Besides, the “neutralization of MERS-CoV pseudovirus (IC50)” value in assay [8] came out at 2.9 µg/mL. For the same molecule, in [9], the “neutralization of SARS-CoV pseudovirus (IC50)” value turned out to be 1.8 µg/mL. The “IC50, neutralisation” value amounted to 3 µg/mL in assay [1], 2.8 µg/mL in assay [2] and 2.2 µg/mL in assay [3]. Moreover, the EC50 came out at 586 nM in [10]; 520 nM in [11]; 586 nM in assay [12]; 520 nM in [13]; 857 nM in assay [14]. The “fold weaker binding affinity than ACE2” value in assay [10] was about 7 fold.

These data come from patent publication US20240207401A1 (IMPERIAL COLLEGE INNOVATIONS, published 2024).
